Patent publication US20110239327A1, “Nematicidal Effects of Cysteine Proteinases and Methods of Use Thereof to Treat Nematode Infestation” (priority 2007, published 2011)

Experiments:
Meloidogyne spp. J2s = test: Light microscopy and SEM of cuticle damage of Meloidogyne spp. J2s; type: cell-based, M. incognita or M. javanica
Protocol: Approximately 1000 J2s (second juvenile stage) of M. incognita or M. javanica were incubated per well of a 48-well plate with the following active enzyme concentrations (determined by E-64 titration) of papain dissolved in distilled water containing 16 mM L-cysteine (to activate the cysteine proteinase): 1.5 μM, 3 μM, 6.25 μM, 12.5 μM, 25 μM, 50 μM, 75 μM and 100 μM. Control wells contained J2s and distilled water with and without 16 mM L-cysteine, or J2s and 1 mM E-64, with and without 50 μM (active enzyme) papain, which had been preincubated for 25 mins at 40° C. Each enzyme concentration and the controls were set up in duplicate (n=2) or triplicate (n=3). The number of active J2s per well was counted prior to the addition of papain, and then the J2s were incubated in the dark at room temperature for 3 h. The number of mobile J2s per well was counted after 60, 120 and 180 mins. The nematode surfaces were examined for signs of damage using a light microscope (Zeiss Axioskop) at ×20, ×40 and ×100 magnification and photographs were taken with a Xillix Microimager. The same procedure was followed when setting up further experiments to compare the effects of 25 μM papain, 25 μM crude papaya latex (0.625 g/ml), 25 μM stem bromelain (0.18 g/ml) and 25 μM actinidin (active enzyme concentrations) with M. incognita, M. javanica or G. rostochiensis.
The effects on the J2 cuticle were more closely examined by scanning electron microscopy (SEM). Approximately 2000 J2s were used per enzyme or control treatment. These J2s were added to each of four 5 ml tubes and centrifuged at 2500 rpm 4° C. for 5 mins. The supernatant was removed and the J2s were resuspended with 500 μl of 100 μM papain, 100 μM actinidin (active enzyme concentrations) or distilled water with and without 16 mM L-cysteine (the enzyme dilutions were prepared with 16 mM L-cysteine dissolved in distilled water). The nematodes were incubated in the dark at ambient temperature for 4 h before centrifugation as above. The J2s were immediately fixed with 2.5% glutaraldehyde in 0.15M phosphate buffer, pH 7.2 for 1 h at room temperature and were then centrifuged as before prior to washing for 1 h in 0.15M phosphate buffer, pH 7.2 at 4° C. These J2s were then prepared for SEM as described previously by Stepek et al. (2005).

[1] = tested on: adult females of M. incognita; test: Light microscopy of Meloidogyne adult female worms incubated with papain; type: cell-based; parameters: digestion of the cuticle of adult females: dose or concentration left out as unconfirmed
Protocol: To assess whether these enzymes also affected the cuticles of other stages of the nematodes, five adult females of M. […], prepared in 16 mM L-cysteine dissolved in phosphate buffered saline (PBS), pH 7.4, or PBS, pH 7.4 with and without 16 mM L-cysteine. These nematodes were incubated in the dark at ambient temperature for 4 h and were then examined using a light microscope at ×10 and ×20 magnification to observe any differences to the nematode body wall.

Meloidogyne spp. eggs = test: Effect on eggs, hatching and development of Meloidogyne spp.; type: cell-based
Protocol: To determine if the enzymes affected the eggshell and/or the development and hatching of the juveniles which the eggs contain, approximately 300 Meloidogyne spp. eggs were incubated per well of a 48-well plate, in duplicate, in 50 μM (active enzyme) papain, prepared in 16 mM L-cysteine dissolved in distilled water, or distilled water with and without 16 mM L-cysteine. The number of eggs in each well was counted before the addition of papain and then the eggs were incubated in the dark at room temperature for 4 h. The number of eggs was counted before further incubation overnight. Finally, closer examination of the structure of the nematode eggs was performed using the light microscope at ×40 magnification.

M. incognita J2 = test: In vitro assay of M. incognita J2 present in soil mixtures; type: cell-based
Protocol: The same procedure described above was used to determine the effect of the cysteine proteinases against M. incognita J2 present in soil mixtures. The following soil mixtures were used: fine and coarse sand, peat and fine/coarse sand and loam mix and fine/coarse sand. These soil mixtures were prepared at concentrations of 1:1, 1:3 and 1:6 and autoclaved at […] for 20 min. Peat and loam-mix were obtained from Rothamsted-Research. Soil mixtures were added to 24 well plates (0.5 g) and wetted for 16 hs with either PBS ph 7.2, Tx-100, Milk 5% or cysteine proteinases, in order to wet the soil and block non-specific binding sites present in the soil particles. Then, approximately 100 J2 were added to the wells, followed by cysteine proteinases with 16 mM of L-cysteine to activate the cysteine proteinases or water as control. After 16 hs at room temperature in the dark, individual wells of the 24 well plates were flushed with 1 ml of distilled water to recover the nematodes from the soil mixtures. These were placed in a 24 well plate and the number of dead/live nematodes scored under microscopic observation.
These in vitro experiments were performed in 24 well plates using sterile soil mixtures to diminish the possibility of biological degradation of the enzyme by microorganisms. […] The number of live nematodes was counted before and after enzyme treatment. […]

B1: papain (protein, UniProt P00784 134-345, looked up)
Papain: IPEYVDWRQKGAVTPVKNQGSCGSCWAFSAVVTIEGIIKIRTGNLNEYSEQELLDCDRRSYGCNGGYPWSALQLVAQYGIHYRNTYPYEGVQRYCRSREKGPYAAKTDGVRQVQPYNEGALLYSIANQPVSVVLEAAGKDFQLYRGGIFVGPCGNKVDHAVAAVGYGPNYILIKNSWGTGWGENGYIRIKRGTGNSYGVCGLYTSSFYPVKN
notes: cysteine proteinase from Carica papaya, Merops C01.001, Sigma P3125
visible effects on the surface of the nematodes (Meloidogyne spp. J2s; papain 1.5 μM and 3 μM, light microscopy): no visible effects on the surface | digestion of the cuticle at the anterior end (light micrographs) (Meloidogyne spp. J2s; papain 6.25 μM and 100 μM active enzyme, 3 h): Digestion of the cuticle was evident | appearance of the internal structures (light micrographs) (Meloidogyne spp. J2s; papain 100 μM, 3 h): abnormal granular appearance of the internal structures | active enzyme concentration causing blistering of the cuticle (Meloidogyne spp. J2s; papain, light microscopy x40 and x100, anterior end): above 6.25 μM | digestion of the cuticle of adult females (light micrographs) ([1]; 25 μM active papain, 4 h): Digestion of the cuticle was evident | digestion of the cuticle of adult females ([1]; active papain): digestion of the cuticle was evident | hatching and development of the J2 stage (Meloidogyne spp. eggs; incubation of the eggs with enzyme): not affected | effect on eggs / structure of the eggs (Meloidogyne spp. eggs; light microscopy, up to overnight incubation): remained unaffected | nematode mortality (M. incognita J2; papain latex 100 μM, 16 hours, all soil mixtures (sand; 1:3 sand/loam mix; 1:3 sand/peat)): 40-50% | state of the nematodes after two applications of papain to soil (M. incognita J2; soil with 16% organic matter wetted with 250 μM papain without L-cysteine, then 250 μM papain in 16 mM L-cysteine, 16 hs): most nematodes were dead
